Measured values reported in PMC8253979, “The C-terminal tail extension of myosin 16 acts as a molten globule, including intrinsically disordered regions, and interacts with the N-terminal ankyrin” (The Journal of Biological Chemistry, 2021).

T1: myosin 16 C-terminal tail (Myo16Tail), His6-tagged, with the IQ motif (Rattus norvegicus, UniProt Q9ERC1 1146-1912)
T1 construct: Myosin 16 (Myo16b isoform, 1912 aa), Rattus norvegicus, UniProt Q9ERC1, residues 1146-1912: IQ motif, NHM, proline-rich region and C-terminal element; cloned into pFastBac; No removal of the His6 tag is described; also called His6–Myo16Tail; C-terminal tail extension of Myo16b; source: baculovirus/Sf9, purified under denaturing conditions (6 M GuHCl, 8 M urea, Ni-NTA), renatured by dialysis
T1 sequence (looked up): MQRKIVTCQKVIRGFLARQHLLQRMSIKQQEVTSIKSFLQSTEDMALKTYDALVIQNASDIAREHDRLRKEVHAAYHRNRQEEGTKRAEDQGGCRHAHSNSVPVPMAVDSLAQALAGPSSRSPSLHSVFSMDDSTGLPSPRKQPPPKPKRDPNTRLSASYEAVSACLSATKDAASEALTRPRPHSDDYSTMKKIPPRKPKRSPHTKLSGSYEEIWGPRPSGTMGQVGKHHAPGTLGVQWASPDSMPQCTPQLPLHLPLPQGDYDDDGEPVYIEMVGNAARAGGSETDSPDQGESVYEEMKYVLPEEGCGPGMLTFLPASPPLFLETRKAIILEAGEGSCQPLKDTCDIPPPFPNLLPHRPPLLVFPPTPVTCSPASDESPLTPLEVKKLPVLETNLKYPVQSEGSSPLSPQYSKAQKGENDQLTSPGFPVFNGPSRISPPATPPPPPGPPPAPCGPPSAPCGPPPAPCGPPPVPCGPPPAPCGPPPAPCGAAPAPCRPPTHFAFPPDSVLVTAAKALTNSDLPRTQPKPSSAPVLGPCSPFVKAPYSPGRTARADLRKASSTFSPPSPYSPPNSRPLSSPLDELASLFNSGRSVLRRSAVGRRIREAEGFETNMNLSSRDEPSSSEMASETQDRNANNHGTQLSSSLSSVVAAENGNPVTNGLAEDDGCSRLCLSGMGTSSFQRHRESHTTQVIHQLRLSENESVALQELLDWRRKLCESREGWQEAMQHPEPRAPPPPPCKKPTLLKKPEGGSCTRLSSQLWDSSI

T2: Myo16Tail without the IQ motif, Myo16Tail (−IQ), His6-tagged (Rattus norvegicus, UniProt Q9ERC1 1176-1912)
T2 construct: Myosin 16 (Myo16b isoform), Rattus norvegicus, UniProt Q9ERC1, residues 1176-1912 (tail without the IQ motif); Cloned into the pFastBac vector as m1; No removal of the His6 tag is described; also called His6–Myo16Tail (−IQ); source: baculovirus/Sf9, purified by the denaturing procedure (Ni-NTA), renatured
T2 sequence (looked up): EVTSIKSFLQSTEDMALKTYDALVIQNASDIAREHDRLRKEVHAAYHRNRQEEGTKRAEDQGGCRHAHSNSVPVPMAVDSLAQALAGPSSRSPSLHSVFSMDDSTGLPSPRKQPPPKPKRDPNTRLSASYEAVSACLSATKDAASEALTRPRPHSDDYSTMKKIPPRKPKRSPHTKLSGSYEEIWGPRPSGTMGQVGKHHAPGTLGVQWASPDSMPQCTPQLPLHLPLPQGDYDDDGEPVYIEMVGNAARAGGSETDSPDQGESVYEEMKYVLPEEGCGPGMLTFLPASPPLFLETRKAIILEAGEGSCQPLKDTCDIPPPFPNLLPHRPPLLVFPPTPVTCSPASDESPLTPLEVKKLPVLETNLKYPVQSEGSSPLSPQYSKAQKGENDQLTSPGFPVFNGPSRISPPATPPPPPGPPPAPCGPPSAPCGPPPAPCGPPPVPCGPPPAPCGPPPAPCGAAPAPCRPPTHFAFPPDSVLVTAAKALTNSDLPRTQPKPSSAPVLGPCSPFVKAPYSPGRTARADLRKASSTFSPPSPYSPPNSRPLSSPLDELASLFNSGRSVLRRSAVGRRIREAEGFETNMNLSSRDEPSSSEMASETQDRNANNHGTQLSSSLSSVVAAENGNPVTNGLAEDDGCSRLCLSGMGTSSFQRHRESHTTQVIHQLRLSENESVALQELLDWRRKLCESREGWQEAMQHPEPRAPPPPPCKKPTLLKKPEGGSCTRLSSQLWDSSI

T3: Alexa568-labelled synthesized rat myosin 16 IQ motif peptide (Alexa568–Myo16IQ) (Rattus norvegicus, UniProt Q9ERC1 1146-1175, Alexa Fluor C5 568 maleimide label, position not stated)
T3 construct: Myosin 16 IQ motif, Rattus norvegicus, residues 1146-1175 (30 amino acids, MW 3.6385 kDa by mass spectrometry); source: synthetic peptide (GenScript)
T3 peptide (looked up): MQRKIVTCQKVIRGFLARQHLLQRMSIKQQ


What was measured:
Conditions in all cases: both partners purified
[1] = target: T1, myosin 16 C-terminal tail (Myo16Tail), …; test: fluorescence polarisation; steady-state fluorescence anisotropy; Alexa568–Myo16Ank fixed (1.2 μM with Myo16Tail, 1 μM with Myo16Tail (−IQ)), tail construct titrated; λex 578 nm, λem 601 nm; quadratic binding equation (Equation 1)
[2] = target: T2, Myo16Tail without the IQ motif, …; test: as above
[3] = target: T3, Alexa568-labelled synthesized rat …; test: fluorescence polarisation; steady-state fluorescence anisotropy; Alexa568–Myo16IQ fixed (1 μM), Myo16Ank titrated; λex 578 nm, λem 601 nm; quadratic binding equation (Equation 1)

Kd [1] [µM] | Kd [2] [µM] | Kd [3] [µM] | Binder
2.5 | 5.6 |  | Alexa568-labelled N-terminal ankyrin domain of myosin 16 (Alexa568–Myo16Ank) (domain or fragment, Alexa Fluor C5 568 maleimide label, position not stated) MEIDQCLLESLPLGQRQRLVRRMRCEQIKAYYEREKVFQKQEGLLKRIKPGKSQKVRFGLADMIQDAIIHHHDKEVLQLLKEGADPHTLVSSGGSLLHLCARYDNVFIAEVLIDRGVNVNHQDEDFWAPMHIACACDNPDIVLLLILAGANVLLQDVNGNIPLDYAVEGTESSAILLAYLDENGVDLNSLRQIKLQRPLSMLTDVRHFLSSGGDVNEKNDDGVTLLHMACASGYKEVVLLLLEHGGDLNGMDDGYWTPLHLAAKYGQTTLVKLLLAHQANPHLVNCNGEKPSDIAASESIEEMLLKAEIAWEERMKESPSVPSLAQEELYEEILHDLPELSSKLSPLVLPIAKQDSLLEKDIMFKDTTKGLCNQESQDGPPETSMVSSSSKPEQVQLTPP
 |  | 16 | N-terminal ankyrin domain of myosin 16 (Myo16Ank), unlabelled (domain or fragment) MEIDQCLLESLPLGQRQRLVRRMRCEQIKAYYEREKVFQKQEGLLKRIKPGKSQKVRFGLADMIQDAIIHHHDKEVLQLLKEGADPHTLVSSGGSLLHLCARYDNVFIAEVLIDRGVNVNHQDEDFWAPMHIACACDNPDIVLLLILAGANVLLQDVNGNIPLDYAVEGTESSAILLAYLDENGVDLNSLRQIKLQRPLSMLTDVRHFLSSGGDVNEKNDDGVTLLHMACASGYKEVVLLLLEHGGDLNGMDDGYWTPLHLAAKYGQTTLVKLLLAHQANPHLVNCNGEKPSDIAASESIEEMLLKAEIAWEERMKESPSVPSLAQEELYEEILHDLPELSSKLSPLVLPIAKQDSLLEKDIMFKDTTKGLCNQESQDGPPETSMVSSSSKPEQVQLTPP
